Target: T1, N-SpTad2 (Schizosaccharomyces pombe, UniProt O94642 1-202)
T1 sequence: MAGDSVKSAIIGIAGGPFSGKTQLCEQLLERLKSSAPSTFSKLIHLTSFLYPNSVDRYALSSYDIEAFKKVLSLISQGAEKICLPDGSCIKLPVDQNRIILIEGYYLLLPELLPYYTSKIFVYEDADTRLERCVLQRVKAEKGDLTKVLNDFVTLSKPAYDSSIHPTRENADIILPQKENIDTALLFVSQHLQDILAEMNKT
Assay: EMSA

B1: tRNAAla (structured_RNA)
RNA: GGGCGUGUGGCGUAGUCGGUAGCGCGCUCCCUUAGCAUGGGAGAGGUCUCCGGUUCGAUUCCGGACUCGUCCACC
- binding result: no binding

Reference: article PMC8217354
